This note sets out measurements from patent publication US20060121042A1 (AstraZeneca / MedImmune, published 2006).

One assay has as its target T1, r murine EphA4 (mouse, UniProt Q03137).
T1 construct: recombinant Fc fusion (R&D Systems); also called rmuEphA4-Fc; mEphA4
In words: activity ELISA, IgG on coated antigen.

In another assay the target is T2, r murine EphA7 (mouse, UniProt Q61772).
T2 construct: recombinant Fc fusion (R&D Systems); also called rmuEphA7-Fc; mEphA7
T2 sequence (receptor-Fc fusion, looked up): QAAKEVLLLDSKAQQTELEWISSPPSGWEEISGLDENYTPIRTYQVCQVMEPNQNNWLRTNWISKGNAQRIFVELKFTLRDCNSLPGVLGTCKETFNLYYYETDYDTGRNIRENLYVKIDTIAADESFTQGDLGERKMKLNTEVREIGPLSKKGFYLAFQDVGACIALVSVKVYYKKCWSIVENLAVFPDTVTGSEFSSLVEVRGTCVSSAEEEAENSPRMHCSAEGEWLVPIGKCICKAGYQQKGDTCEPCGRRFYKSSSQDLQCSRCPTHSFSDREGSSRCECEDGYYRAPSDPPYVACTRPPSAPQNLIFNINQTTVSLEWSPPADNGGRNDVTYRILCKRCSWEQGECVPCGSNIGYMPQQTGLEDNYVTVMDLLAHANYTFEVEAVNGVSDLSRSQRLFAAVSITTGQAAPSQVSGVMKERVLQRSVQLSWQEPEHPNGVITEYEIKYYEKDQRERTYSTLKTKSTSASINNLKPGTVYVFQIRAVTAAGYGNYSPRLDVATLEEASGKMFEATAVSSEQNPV
The assay can be described thus: activity ELISA, IgG on coated antigen.

Another assay concerns the target T3, mEphA4 (mouse, UniProt Q03137).
T3 construct: part of an Fc fusion; also called rmuEphA4-Fc
The assay can be described thus: ELISA, receptor coated on the plate, purified IgG, anti-human kappa-HRP.

Another assay addresses T4, mEphA7 (mouse, UniProt Q61772).
T4 construct: part of an Fc fusion; also called rmuEphA7-Fc
T4 sequence (receptor-Fc fusion, looked up): T2 sequence (receptor-Fc fusion, looked up)
The assay is described as above.

Another assay concerns the target T5, r rat EphA5 (rat, UniProt P54757).
T5 construct: part of an Fc fusion; also called rEphA5; rratEphA5-Fc
In words: Activity ELISA, receptor coated on the plate, purified IgG, anti-human kappa-HRP. The method, then:
(§1) Secondary screening of IgG constructs of affinity optimized combinatorial variants with additional EphA receptors: With purified IgG constructs of the nine combinatorial variants, additional secondary screening assays were performed using the Activity ELISA (see above) and recombinant EphA receptor proteins. More precisely, Nunc Maxisorp plates were coated with the following rEphA proteins: rhuEphAl-Fc; 0.5 μg/well, rmuEphA2-Fc; 0.5 μg/well, rmuEphA3-Fc: 0.1 μg/well, rmuEphA4-Fc; 0.1 μg/well, rratEphA5-Fc; 0.5 μg/well, rmuEphA6-Fc; 0.5 μg/well, rmuEphA7-Fc; 0.1 μg/well, rEphA8; 0.2 μg/well (all R&D Systems), rhuEphA2-Fc; 0.5 μg/well, and rhuEphA4-His; 0.1 μg/well (both produced at MedImmune, Inc.). Plates were blocked with 3% BSA+0.1% Tween20 for 2 h. […] Incubation with a goat anti-human kappa horseradish peroxydase (HRP) conjugate then followed. HRP activity was detected with TMB substrate and the reaction quenched with 0.2 M H₂SO₄. Plates were read at 450 nm. Data was analyzed by normalizing Fab concentrations to the corresponding activity data (see FIGS. 12A-12J and 14).
A general note: In an ELISA, binding on a coated surface is turned into a signal by an enzyme label.

The target in the next assay is T6, r murine EphA8 (mouse, UniProt O09127).
T6 construct: recombinant soluble protein coated on the plate; also called mEphA8; rEphA8
T6 sequence (receptor construct, looked up): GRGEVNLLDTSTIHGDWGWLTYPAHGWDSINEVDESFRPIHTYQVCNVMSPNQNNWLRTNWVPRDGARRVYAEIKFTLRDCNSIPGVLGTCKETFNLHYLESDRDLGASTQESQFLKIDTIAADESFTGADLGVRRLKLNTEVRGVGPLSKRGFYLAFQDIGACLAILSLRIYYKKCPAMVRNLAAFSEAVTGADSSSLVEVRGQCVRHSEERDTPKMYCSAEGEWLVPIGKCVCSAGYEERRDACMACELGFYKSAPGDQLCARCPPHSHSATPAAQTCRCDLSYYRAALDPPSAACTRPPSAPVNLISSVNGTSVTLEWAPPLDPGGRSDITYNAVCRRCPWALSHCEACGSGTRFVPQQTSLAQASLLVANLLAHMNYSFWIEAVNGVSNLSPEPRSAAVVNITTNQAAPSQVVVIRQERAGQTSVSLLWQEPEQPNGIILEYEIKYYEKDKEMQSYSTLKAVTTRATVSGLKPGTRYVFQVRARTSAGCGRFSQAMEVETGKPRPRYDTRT
In words: Activity ELISA, receptor coated on the plate, purified IgG, anti-human kappa-HRP, OD 450 nm. The method, then:
as §1

The target of assay [1] is T7, Human EphA4-Fc fusion protein (human, UniProt P54764 20-547).
T7 construct: not shown: Fc portion of a human IgG1
T7 sequence (P54764 20-547): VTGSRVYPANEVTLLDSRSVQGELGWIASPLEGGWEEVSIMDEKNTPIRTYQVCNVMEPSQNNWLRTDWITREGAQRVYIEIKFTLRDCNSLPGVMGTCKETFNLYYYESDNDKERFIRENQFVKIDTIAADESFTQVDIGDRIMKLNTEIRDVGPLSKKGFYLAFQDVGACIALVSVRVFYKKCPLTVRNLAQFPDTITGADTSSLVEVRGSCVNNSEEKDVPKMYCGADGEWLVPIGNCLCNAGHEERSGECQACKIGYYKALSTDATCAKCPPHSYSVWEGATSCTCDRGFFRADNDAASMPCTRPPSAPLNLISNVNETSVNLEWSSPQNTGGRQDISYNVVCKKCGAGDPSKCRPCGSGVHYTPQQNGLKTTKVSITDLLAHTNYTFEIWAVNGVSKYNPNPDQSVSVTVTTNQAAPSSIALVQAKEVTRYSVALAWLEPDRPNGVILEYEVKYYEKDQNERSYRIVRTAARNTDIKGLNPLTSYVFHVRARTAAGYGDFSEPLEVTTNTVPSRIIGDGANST
In words: BIAcore, IgG immobilized on the sensor chip, EphA4-Fc as analyte; comment on the sheet: off-rate below LOD. The method, then: FIG. 15A-15B. […] Binding affinities were measured using the BIAcore assay. […] Variant kinetic measurements for human EphA4 and were obtained using BIAcore with immobilized variant antibodies and human EphA4-Fc and EphA4-His as analytes.
(In general: Surface plasmon resonance follows binding to a sensor surface in real time, without labels.)

T5 sequence (P54757 27-575 limits assumed): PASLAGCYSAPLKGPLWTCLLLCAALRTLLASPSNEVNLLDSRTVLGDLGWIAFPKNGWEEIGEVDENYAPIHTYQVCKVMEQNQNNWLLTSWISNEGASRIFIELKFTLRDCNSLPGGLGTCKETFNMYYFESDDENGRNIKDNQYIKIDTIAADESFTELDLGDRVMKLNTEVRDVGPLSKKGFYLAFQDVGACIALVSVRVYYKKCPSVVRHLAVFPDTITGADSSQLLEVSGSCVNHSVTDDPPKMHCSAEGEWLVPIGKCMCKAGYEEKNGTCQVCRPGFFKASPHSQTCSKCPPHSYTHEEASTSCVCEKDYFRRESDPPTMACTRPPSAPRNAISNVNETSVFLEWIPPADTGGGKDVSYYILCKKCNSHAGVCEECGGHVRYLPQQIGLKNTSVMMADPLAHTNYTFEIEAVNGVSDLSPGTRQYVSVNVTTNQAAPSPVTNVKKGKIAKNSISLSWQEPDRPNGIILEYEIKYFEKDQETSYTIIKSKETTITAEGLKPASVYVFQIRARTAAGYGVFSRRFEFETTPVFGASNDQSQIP
T3 sequence (Q03137 20-547 limits assumed): as the sequence (P54764 20-547) above, with P59A, N121S, V124G, R250Q, S251N, T270S, K378R, N406S counted along it
T1 sequence (Q03137 20-547 limits assumed): as the sequence (P54764 20-547) above, with P59A, N121S, V124G, R250Q, S251N, T270S, K378R, N406S counted along it

B1: 3A12 IgG1 (affinity optimized combinatorial variant of mAb GEA44 in human IgG1 format) (antibody, V domains shown)
VH: QVQLLQSGAEVKKPGASVKVPCKASGYTFTSRAMSWVRQAPGQGLEWMGWINTNTGNPTYAQGFTGRFVFSLDTSVSTAYLQISSLKAEDTAVYYCARVRFTVYGDGMDVWGQGTLVTVSS
VL: EIVLTQSPATLSVSPGERATLSCRASQSVSSNLAWYQQKPGQAPRLLIYGASTWATGIPDRFSASGSGTDFTLTISRVEPEDFAVYYCQQYGPSWTFGQGTKVEIK
As to B1, the binding result with r murine EphA4, with r murine EphA7, in the assay with mEphA4, in the assay with mEphA7, with r rat EphA5 and in the assay with r murine EphA8 was “binds” in each case. In assay [1], the Kd was 6 pM. This molecule had a koff in assay [1] of 8.66e-07 s⁻¹. This molecule registered a kon in assay [1] of 147000 M⁻¹ s⁻¹.

By Kd is commonly meant the free concentration of one partner at which half of the binding sites on the other are occupied at equilibrium, for simple one-to-one binding. A higher Kd goes with lower affinity. A word on the koff: it is the rate constant with which the complex falls apart. As a reminder, the kon is a measure of how fast the partners come together. Read a high kon as fast association.
